Reference: publication PMC8247599 (Genes & Development, 2021)

Target: the molecule itself
Test: crystal structure

B1: Khc^855–941 (domain or fragment)
chain: not shown
Does B1 bind?
Result: binds
